Source: US8217006B2, “Inhibiting GS-FDH to modulate no bioactivity” (Duke University, priority 2001, dated 2012)

Substrate: N[C@@H](CCC(=O)N[C@@H](CSN=O)C(=O)NCC(=O)O)C(=O)O
Assay: cells, lysate or membranes named
Details: other: purified protein from RAW 264.7 cells; pH 8.0

B1: mouse GS-FDH (Mus musculus) (protein)
chain: MANQVIRCKAAVAWEAGKPLSIEEIEVAPPKAHEVRIKILATAVCHTDAYTLSGADPEGCFPVILGHEGAGIVESVGEGVTKLKAGDTVIPLYIPQCGECKFCLNPKTNLCQKIRVTQGKGLMPDGTSRFTCKGKSVFHFMGTSTFSEYTVVADISVAKIDPSAPLDKVCLLGCGISTGYGAAVNTAKVEPGSTCAVFGLGGVGLAVIMGCKVAGASRIIGIDINKDKFAKAKEFGASECISPQDFSKSIQEVLVEMTDGGVDYSFECIGNVKVMRSALEAAHKGWGVSVVVGVAASGEEISTRPFQLVTGRTWKGTAFGGWKSVESVPKLVSEYMSKKIKVDEFVTGNLSFDQINQAFDLMHSGDSIRTVLKM
Km: 20 µM | kcat: 5,600 min^−1
